Measurements taken from paper PMC10395586.
Values joined by “and” are separate entries in the source; they are usually repeats but may differ in a detail not shown here. Identical values can stand only once. Like-named read-outs stand apart in the source and are kept apart here.

Assays:
Assay in all cases: native MS
[1] = target: cpTMV-S65C (tobacco mosaic virus)
[2] = target: cpTMV-S65-3NY (tobacco mosaic virus)
[3] = target: cpTMV-S65-3NY (tobacco mosaic virus); remark: listed apart in the source
[4] = target: cpTMV without any mutation at the S65 position (tobacco mosaic virus)
[5] = target: cpTMV-S65-pAF (tobacco mosaic virus)

cpTMV-S65C
monomers per disk (monomers per disk) [1]: 16

cpTMV-S65-3NY
monomers per disk (monomers per disk) [2]: 17 | monomers per disk (monomers per disk) [3]: 16

cpTMV without any mutation at the S65 position
monomers per disk (monomers per disk) [4]: 16

cpTMV-S65-pAF
monomers per disk (two-disk stack) (monomers per disk) [5]: 16 and 17
